From paper PMC4713133 (Molecular Biology of the Cell, 2016) come the findings set out here.

In one test the target is Sec8-Myc (rat, UniProt Q62824 1-975). In words: pull-down.
For the next test, the target named is Sec5-Myc (rat, UniProt O54921 1-924). In words: pull-down.
Sequence of Sec5-Myc (O54921 whole entry): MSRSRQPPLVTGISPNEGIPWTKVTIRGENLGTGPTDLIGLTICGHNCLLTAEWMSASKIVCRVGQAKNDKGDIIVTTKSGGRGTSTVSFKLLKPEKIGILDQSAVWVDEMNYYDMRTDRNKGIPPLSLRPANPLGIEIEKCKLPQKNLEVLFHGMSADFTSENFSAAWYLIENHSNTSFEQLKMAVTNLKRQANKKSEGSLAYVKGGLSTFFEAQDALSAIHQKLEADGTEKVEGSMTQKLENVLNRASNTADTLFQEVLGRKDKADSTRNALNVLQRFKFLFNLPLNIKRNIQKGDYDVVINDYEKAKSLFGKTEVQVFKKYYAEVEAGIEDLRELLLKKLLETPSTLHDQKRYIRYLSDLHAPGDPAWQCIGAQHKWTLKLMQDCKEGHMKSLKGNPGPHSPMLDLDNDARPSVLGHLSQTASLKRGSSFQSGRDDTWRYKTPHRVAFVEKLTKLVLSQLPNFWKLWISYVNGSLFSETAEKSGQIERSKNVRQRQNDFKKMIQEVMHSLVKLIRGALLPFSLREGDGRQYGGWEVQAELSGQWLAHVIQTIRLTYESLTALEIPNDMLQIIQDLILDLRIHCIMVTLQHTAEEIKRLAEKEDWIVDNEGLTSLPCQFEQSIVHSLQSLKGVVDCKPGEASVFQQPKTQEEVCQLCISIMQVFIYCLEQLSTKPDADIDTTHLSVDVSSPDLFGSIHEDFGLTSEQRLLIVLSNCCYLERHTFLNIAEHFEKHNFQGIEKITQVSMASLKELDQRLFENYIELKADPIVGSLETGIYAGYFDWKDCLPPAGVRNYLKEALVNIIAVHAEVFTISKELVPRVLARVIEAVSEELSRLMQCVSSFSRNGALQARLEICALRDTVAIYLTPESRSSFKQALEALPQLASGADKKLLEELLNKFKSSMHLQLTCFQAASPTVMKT

Sequence of Sec8-Myc (Q62824 whole entry): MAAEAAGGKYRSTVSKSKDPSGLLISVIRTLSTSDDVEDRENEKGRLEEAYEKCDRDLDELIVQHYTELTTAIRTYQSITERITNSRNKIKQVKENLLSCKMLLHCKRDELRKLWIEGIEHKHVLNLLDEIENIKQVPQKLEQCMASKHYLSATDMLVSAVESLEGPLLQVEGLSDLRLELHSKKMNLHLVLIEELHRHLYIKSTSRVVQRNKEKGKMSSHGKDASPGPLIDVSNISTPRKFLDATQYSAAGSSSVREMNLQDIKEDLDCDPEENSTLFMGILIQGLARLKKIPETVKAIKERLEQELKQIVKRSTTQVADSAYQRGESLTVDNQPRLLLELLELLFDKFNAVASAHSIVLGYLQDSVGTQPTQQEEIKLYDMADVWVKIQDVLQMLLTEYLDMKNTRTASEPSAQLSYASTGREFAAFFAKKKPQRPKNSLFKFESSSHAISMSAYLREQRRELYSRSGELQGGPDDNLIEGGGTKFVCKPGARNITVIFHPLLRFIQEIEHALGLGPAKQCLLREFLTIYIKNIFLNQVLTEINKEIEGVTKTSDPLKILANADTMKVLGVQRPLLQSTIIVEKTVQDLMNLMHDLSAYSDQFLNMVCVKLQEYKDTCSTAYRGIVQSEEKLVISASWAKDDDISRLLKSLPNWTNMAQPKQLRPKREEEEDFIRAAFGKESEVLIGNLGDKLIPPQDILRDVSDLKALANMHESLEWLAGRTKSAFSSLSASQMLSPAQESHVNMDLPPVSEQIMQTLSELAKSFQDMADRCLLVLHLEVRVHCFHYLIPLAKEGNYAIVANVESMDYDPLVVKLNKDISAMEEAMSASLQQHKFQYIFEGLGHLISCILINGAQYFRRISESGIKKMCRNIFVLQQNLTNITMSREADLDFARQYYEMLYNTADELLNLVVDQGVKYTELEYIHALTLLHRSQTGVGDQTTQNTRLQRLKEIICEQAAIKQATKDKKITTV

B1: Arl13b-GST (natural protein)
chain: not shown
For B1, the binding result with Sec8-Myc and with Sec5-Myc was “binds” throughout.
